Experimental data: PMC6335053

Molecular target: Human full-length GIRK4 (purified) (human) (UniProt P48544)
Chain of UniProt P48544 (P48544 whole entry): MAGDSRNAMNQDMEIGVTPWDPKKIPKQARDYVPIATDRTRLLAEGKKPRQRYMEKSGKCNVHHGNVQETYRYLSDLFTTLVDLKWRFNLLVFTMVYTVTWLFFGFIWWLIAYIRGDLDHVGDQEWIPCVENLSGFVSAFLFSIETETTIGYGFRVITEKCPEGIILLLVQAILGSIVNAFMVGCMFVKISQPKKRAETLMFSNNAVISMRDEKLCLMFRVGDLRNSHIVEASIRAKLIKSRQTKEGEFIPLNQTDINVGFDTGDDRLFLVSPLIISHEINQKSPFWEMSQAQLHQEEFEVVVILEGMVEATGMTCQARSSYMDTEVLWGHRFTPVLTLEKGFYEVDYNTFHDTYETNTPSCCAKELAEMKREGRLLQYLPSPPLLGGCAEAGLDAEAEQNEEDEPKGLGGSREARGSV

Human lipid-anchored Gβ1γ2 (from UniProt P62873 1-340; P59768 1-71) (complex)
inward GIRK current in planar lipid bilayers: increase on fusing further Gβγ vesicles to a bilayer holding GIRK and Gβγ at 1:0.1 (wt:wt), with 32 µM C8-PIP2 and 32 mM Na+: 5 fold
